Measurements from article doi:10.1101/2023.04.11.536350.
“And” between values parts separate entries of the source, which are not always exact repeats. Equal entries are not always repeated.

Columns and labels:
[1] = target: ErCry4a C412A (European robin (Erithacus rubecula)); assay: native MS
[2] = target: ErCry4a C412A+C317A (European robin (Erithacus rubecula)); assay: native MS
[3] = target: European robin cryptochrome 4a, wild type, with N-terminal 10xHis-tag (European robin (Erithacus rubecula)); assay: mass photometry
[4] = target: European robin cryptochrome 4a, wild type, with N-terminal 10xHis-tag (European robin (Erithacus rubecula)); assay: native MS
[5] = target: European robin cryptochrome 4a, wild type, with N-terminal 10xHis-tag (European robin (Erithacus rubecula)); assay: native MS; remark: listed apart in the source
[6] = target: ErCry4a C317A (European robin (Erithacus rubecula)); assay: native MS

ErCry4a C412A (natural protein)
stoichiometry N [1]: 2 and 3

ErCry4a C412A+C317A (natural protein)
stoichiometry N [2]: 2 and 3

European robin cryptochrome 4a, wild type, with N-terminal 10xHis-tag (natural protein)
percent of counts in the dimer peak [3]: 11%
stoichiometry N [3]: 2
stoichiometry N [4]: 3
stoichiometry N [5]: 2

ErCry4a C317A (natural protein)
stoichiometry N [6]: 2 and 3
